Measured values taken from US20060029601A1 (E R SQUIBB AND SONS L L C, published 2006).
Each block holds one binder with its values, some of them ahead of it.

Key:
[1] = target: T1, human interferon alpha receptor 1 (IFNAR-1) on cells (Daudi, U937, human peripheral blood mononuclear cells) (human, UniProt P17181 28-557); experiment: cell-based or functional assay
T1 sequence (looked up): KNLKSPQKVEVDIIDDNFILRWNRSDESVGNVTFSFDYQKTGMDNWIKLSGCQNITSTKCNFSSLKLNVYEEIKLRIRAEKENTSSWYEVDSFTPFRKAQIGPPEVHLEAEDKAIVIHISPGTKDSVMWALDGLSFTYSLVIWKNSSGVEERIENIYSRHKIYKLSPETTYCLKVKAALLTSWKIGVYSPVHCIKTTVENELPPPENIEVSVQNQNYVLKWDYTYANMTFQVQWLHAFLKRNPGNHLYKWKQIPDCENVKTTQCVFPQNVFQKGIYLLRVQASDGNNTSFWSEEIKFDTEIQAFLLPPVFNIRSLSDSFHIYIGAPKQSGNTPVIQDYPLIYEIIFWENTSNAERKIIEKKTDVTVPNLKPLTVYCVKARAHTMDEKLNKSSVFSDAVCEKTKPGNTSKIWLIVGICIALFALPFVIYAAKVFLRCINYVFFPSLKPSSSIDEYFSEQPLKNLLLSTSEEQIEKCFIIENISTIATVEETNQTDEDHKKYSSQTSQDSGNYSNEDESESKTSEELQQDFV

[2] = target: T2, soluble CHO-derived human IFNAR-1 (human, UniProt P17181 28-436); experiment: cross-competition ELISA on plate-coated soluble CHO-derived human IFNAR-1; titrated antibody against 64G12 at 0.3 ug/mL as competitor, detected with anti-mouse IgG (Fc) peroxidase, O.D. 415 nm
T2 construct: extracellular domain; also called soluble IFNAR-1
T2 sequence (looked up): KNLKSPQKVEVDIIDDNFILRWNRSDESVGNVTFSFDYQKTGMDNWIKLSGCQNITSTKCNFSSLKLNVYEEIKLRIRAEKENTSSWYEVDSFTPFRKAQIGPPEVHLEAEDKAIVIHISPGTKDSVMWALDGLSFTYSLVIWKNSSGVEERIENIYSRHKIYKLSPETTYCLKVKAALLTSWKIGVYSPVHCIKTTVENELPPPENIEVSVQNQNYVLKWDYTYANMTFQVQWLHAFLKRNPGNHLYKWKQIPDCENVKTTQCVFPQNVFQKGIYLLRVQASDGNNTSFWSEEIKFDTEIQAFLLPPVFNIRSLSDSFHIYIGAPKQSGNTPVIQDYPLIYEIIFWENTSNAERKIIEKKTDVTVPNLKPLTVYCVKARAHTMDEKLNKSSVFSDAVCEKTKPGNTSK

[3] = target: T1, human interferon alpha receptor 1 …; experiment: cell-based or functional assay; remark: listed apart in the source

IC50 (read off the curve) [2]: ~0.7 µg/mL
Cell Proliferation (Daudi) EC50, blocking of IFN omega [1]: 5.5 nM
Cell Proliferation (Daudi) EC50, blocking of IFN alpha 2b [3]: 3.1 nM
ISRE-RG Reporter (U937) EC50, blocking of IFN alpha 2b [3]: 6 nM
B2: murine anti-IFNAR-1 antibody 64G12 (ECACC Deposit No. 92022605) (antibody, V domains shown)
VH: QVTLKESGPGILKPSQTLSLTCSFSGFSLSTSGMGIGWIRQPSGKGLEWLAHIWWDDDKYYNPSLKSQLTISRDTSTNQVFLNITSVDTVDTATYYCGRNYYPYDAWFDYWGQGTLVTVS
VL: EIVLTQSPTTMAASPGEKITITCSASSSINSNHLHWYQQKPGFSPKVLIYRTSILASGVPTRFSGSGSGTSYSLTIGTMEAEDVATYYCQQGSNIPFTFGSGTELEIKR

Cell Proliferation (Daudi) EC50, blocking of IFN omega [1]: 0.6 nM
Cell Proliferation (Daudi) EC50, blocking of IFN alpha 2b [3]: 0.3 nM
ISRE-RG Reporter (U937) EC50, blocking of IFN alpha 2b [3]: 1.2 nM
B3: human monoclonal antibody 3F11 (antibody, IgG1, V domains shown)
VH: QVQLQQWGAGLLKPSETLSLTCAVYGGSFSGYFWSWIRQPPGKGLEWIGEIDHSGKTNYNPSLKSRVTISVDTSKNQVSLKLSSVTAADTAVYYCARESKYYFGLDVWGQGTTVTVTS
VL: AIQLTQSPSSLSASVGDRVTITCRASQGIYSVLAWYQQKPGKTPKLLIYDASRLESGVPSRFSGSGSGTDFTLTISSLQPEDFATYYCQQFNSYITFGQGTRLEIK

More lines, now with the values behind:

B1: human monoclonal antibody 4G5 (antibody, IgG1, V domains shown)
VH: QVQLQQWGAGLLKPSETLSLTCAVYGGSFSNYYWSWIRQPPGKGLEWIGEIILSGSTNYNPSLKSRVTISVDTSKNQFSLNLTSVTAADTAVYYCARESKWGYYFDSWGQGTLVTVSS
VL: AIQLTQSPSSLSASVGDRVTITCRATQDISIALVWYQQKPGKAPELLIYDASGLGSGVPSRFSGSGSGTDFTLTISSLQPEDFATYYCQQFNSYPYTFGQGTKLEIK
Cell Proliferation (Daudi) EC50, blocking of IFN omega [1]: 1.4 nM

B4: human monoclonal antibody 11E2 (antibody, IgG1, V domains shown)
VH: EVQLVQSGAEVKKPGESLKISCKGSGYIFTNYWIAWVRQMPGKGLESMGIIYPGDSDIRYSPSFQGQVTISADKSITTAYLQWSSLKASDTAMYYCARHDIEGFDYWGRGTLVTVSS
VL: EIVLTQSPGTLSLSPGERATLSCRASQSVSSSFFAWYQQKPGQAPRLLIYGASSRATGIPDRLSGSGSGTDFTLTITRLEPEDFAVYYCQQYDSSAITFGQGTRLEIK
Cell Proliferation (Daudi) EC50, blocking of IFN omega [1]: 0.3 nM

B5: human monoclonal antibody 9D4 (antibody, IgG1, V domains shown)
VH: B4 VH
VL: B4 VL
Cell Proliferation (Daudi) EC50, blocking of IFN omega [1]: 0.3 nM
